Measurements from PMC3670613 (Structure (London, England : 1993), 2013).
Numbering of substitutions follows the chain as printed. Where two headings read alike, the source gives them in different places. Blank lines part the entries; values can stand above or below the binder they belong to.

What was measured:
[1] = molecular target: T1, S. cerevisiae Rpn14 (recombinant) (S. cerevisiae, UniProt P53196 1-417); assay: AUC
[2] = molecular target: T1, S. cerevisiae Rpn14 (recombinant); assay: AUC; remark: listed apart in the source
[3] = molecular target: T1, S. cerevisiae Rpn14 (recombinant); assay: NMR titration

T1 sequence (P53196 whole entry): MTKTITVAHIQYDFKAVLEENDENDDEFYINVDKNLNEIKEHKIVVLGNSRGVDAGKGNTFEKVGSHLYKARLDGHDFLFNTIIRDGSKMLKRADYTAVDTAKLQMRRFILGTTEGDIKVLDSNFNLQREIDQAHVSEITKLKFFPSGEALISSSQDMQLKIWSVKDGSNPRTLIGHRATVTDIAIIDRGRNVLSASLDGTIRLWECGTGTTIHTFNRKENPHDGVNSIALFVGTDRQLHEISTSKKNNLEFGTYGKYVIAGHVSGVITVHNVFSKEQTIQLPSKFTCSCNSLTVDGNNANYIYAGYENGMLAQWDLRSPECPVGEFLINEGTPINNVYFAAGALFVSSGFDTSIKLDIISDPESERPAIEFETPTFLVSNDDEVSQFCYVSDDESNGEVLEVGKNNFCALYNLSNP

Kd [1]: 0.25 nM
stoichiometry N [1]: 1
B1: S. cerevisiae Rpt6 C-terminal domain (Rpt6-C), P318-K405 (domain or fragment, UniProt Q01939 318-405, looked up)
chain: PPSVAARAEILRIHSRKMNLTRGINLRKVAEKMNGCSGADVKGVCTEAGMYALRERRIHVTQEDFELAVGKVMNKNQETAISVAKLFK

Kd [2]: 0.01 nM
B2: Rpt6-C G^360,387A (domain or fragment, S. cerevisiae, UniProt Q01939 318-405, looked up)
chain: B1 chain with G43A, G70A

binding result [3]: binds
B3: Rpt6-C (P318-N393) (domain or fragment, S. cerevisiae, UniProt Q01939 318-393, looked up)
chain: PPSVAARAEILRIHSRKMNLTRGINLRKVAEKMNGCSGADVKGVCTEAGMYALRERRIHVTQEDFELAVGKVMNKN
